Reference: US10864251B2, “Peptides of syndecan-1 for inhibiting angiogenesis” (Wisconsin Alumni Research Foundation, priority 2006, dated 2020)

Test system: mouse aortic endothelial cells
Test: Cell spreading on VN, mouse aortic endothelial cells
Type: cell-based
Conditions: 1 μM competitor
Experimental: FIGS. 10A-10D—Dependence of HMEC cell attachment and spreading on integrin activation by Sdc1 and its inhibition by SSTN. (FIG. 10A) HMECs were plated for 2 hr either on Sdc1-specific antibody B-B4 to engage Sdc1 or on VN (10 μg/ml coating concentration) to engage the αvβ3 and αvβ5 integrins. Blocking antibodies LM609 (10 μg/ml, specific for αvβ3) and P1F6 (10 μg/ml, specific for αvβ5), SSTN (0.5 μM) or recombinant mouse Sdc1 ectodomain (mS1ED, 5 μM) were added. The ligand mimetic antibody WOW1 was used to detect activated αvβ3 integrin on cells plated on B-B4. (FIG. 10B) HMECs were treated with siRNA oligo specific for human Sdc1 for 48 hr prior to plating on VN. Sdc1 expression was quantified by flow cytometry using human Sdc1-specific mAb B-B4 or a control mouse IgG. (FIG. 10C-10D) The percentage of cell attaching or attaching and spreading was quantified for HMECs, HAEC and MAECs plated on VN for 24 hr in the presence of mS1ED or SSTN, or after siRNA silencing of Sdc1 expression in the presence of mAb LM609 to block αvβ3 integrin, P1F6 to block αvβ5 integrin, or both antibodies.
The next test was whether agents that target Sdc1, especially competition with recombinant S1ED, will block the activity of these two integrins and thus block their interaction with VN. […]

B1: S1ED: recombinant mouse Sdc1 ectodomain (amino acids 18-251), expressed in bacteria as GST fusion or 6×His-tagged protein (protein)
chain: QPALPQIVAVNVPPEDQDGSGDDSDNFSGSGTGALPDTLSRQTPSTWKDVWLLTATPTAPEPTSSNTETAFTSVLPAGEKPEEGEPVLHVEAEPGFTARDKEKEVTTRPRETVQLPITQRASTVRVTTAQAAVTSHPHGGMQPGLHETSAPTAPGQPDHQPPRVEGGGTSVIKEVVEDGTANQLPAGEGSGEQDFTFETSGENTAVAAVEPGLRNQPPVDEGATGASQSLLDRK
modifications: left off: a dimerising Fc or GST
notes: recombinant mouse Sdc1 ectodomain (amino acids 18-251), expressed in bacteria as GST fusion or 6×His-tagged protein
For B1, the “spreading on VN” value was “blocked”.
